According to publication PMC4966575:

Molecular target: scFv 10-94 P (murine)
Assay: SPR

KD1 (bivalent model): 7.5 nM
Substance: Protein L (PpL), free (from UniProt Q51918 1-992) (natural protein)
